These sequences were tested on Escherichia coli TOP10 (assay: shrunken log2 fold change of peptide-encoding DNA abundance (4.5 h post-induction vs induction); higher = less antimicrobial activity (less host growth inhibition)). Conditions: time post-induction: 4.5 h; library: site-saturation at positions 5, 18, 19, 20.
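Note: peptides expressed intracellularly from a pBAD plasmid library in pooled LB shake-flask culture, induced with 0.3% L-arabinose, DNA abundance read by NGS, three biological replicates, DESeq2 with apeglm shrinkage.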

Sequence | shrunken log2 fold change
RRIRWRPPRLPRPRPRPFQIPRP | -0.25
RRIRCRPPRLPRPRPRPYLQPRP | -0.144
RRIRWRPPRLPRPRPRPNAKPRP | 0.188
RRIRTRPPRLPRPRPRPRDHPRP | 0.0565
RRIRGRPPRLPRPRPRPESPPRP | 1.25
RRIRCRPPRLPRPRPRPFEIPRP | -0.341
RRIRERPPRLPRPRPRPYFVPRP | -0.892
RRIRRRPPRLPRPRPRPKISPRP | 0.14
RRIRFRPPRLPRPRPRPFDPPRP | -0.135
RRIRQRPPRLPRPRPRPFVEPRP | -0.152
RRIRVRPPRLPRPRPRPWMCPRP | -0.522
RRIRSRPPRLPRPRPRPFQQPRP | 0.000179
RRIRKRPPRLPRPRPRPALPPRP | 0.936
RRIRDRPPRLPRPRPRPPSRPRP | -0.0515
RRIRIRPPRLPRPRPRPKFWPRP | -0.0477
RRIRCRPPRLPRPRPRPMRWPRP | 0.325
RRIRMRPPRLPRPRPRPAMYPRP | 2.95
RRIRVRPPRLPRPRPRPSHRPRP | -0.615
RRIRDRPPRLPRPRPRPFRYPRP | 0.0402
RRIRRRPPRLPRPRPRPMEPPRP | 0.0257
RRIRERPPRLPRPRPRPIVHPRP | -0.355
RRIRIRPPRLPRPRPRPMYCPRP | -0.183
RRIRIRPPRLPRPRPRPIYYPRP | -0.539
RRIRMRPPRLPRPRPRPQMSPRP | 0.174
RRIRCRPPRLPRPRPRPGSLPRP | 0.0481

Sequence | shrunken log2 fold change
RRIRTRPPRLPRPRPRPDGYPRP | -0.0637
RRIRIRPPRLPRPRPRPTKTPRP | 0.12
RRIRQRPPRLPRPRPRPDKYPRP | -0.0227
RRIRSRPPRLPRPRPRPEPMPRP | 0.54
RRIRYRPPRLPRPRPRPWNGPRP | -0.155
RRIRSRPPRLPRPRPRPMASPRP | 0.088
RRIRIRPPRLPRPRPRPESLPRP | -0.23
RRIRERPPRLPRPRPRPWKDPRP | -0.162
RRIRLRPPRLPRPRPRPYHHPRP | -0.398
RRIRIRPPRLPRPRPRPELTPRP | -0.0457
RRIRDRPPRLPRPRPRPRNEPRP | 0.00109
RRIRIRPPRLPRPRPRPVWTPRP | -0.273
RRIRARPPRLPRPRPRPWRAPRP | 0.338
RRIRFRPPRLPRPRPRPRDNPRP | -0.173
RRIRPRPPRLPRPRPRPYCGPRP | -0.148
RRIRGRPPRLPRPRPRPDCYPRP | 0.191
RRIRVRPPRLPRPRPRPFDVPRP | -0.0208
RRIRGRPPRLPRPRPRPSWKPRP | 0.437
RRIRERPPRLPRPRPRPGSAPRP | 0.151
RRIRGRPPRLPRPRPRPYTIPRP | 0.187
RRIRYRPPRLPRPRPRPTHDPRP | 0.032
RRIRKRPPRLPRPRPRPPPLPRP | 0.661
RRIRKRPPRLPRPRPRPKMYPRP | -0.0411
RRIRSRPPRLPRPRPRPQIYPRP | -0.354
RRIRLRPPRLPRPRPRPVKFPRP | -0.316

Sequence | shrunken log2 fold change
RRIRARPPRLPRPRPRPERSPRP | 0.264
RRIRPRPPRLPRPRPRPPITPRP | -0.0969
RRIRVRPPRLPRPRPRPRIRPRP | -0.202
RRIRSRPPRLPRPRPRPPTGPRP | 0.369
RRIRKRPPRLPRPRPRPIRTPRP | 0.416
RRIRMRPPRLPRPRPRPKLNPRP | 0.851
RRIRYRPPRLPRPRPRPVKIPRP | -0.0138
RRIRDRPPRLPRPRPRPTWMPRP | 0.507
RRIRWRPPRLPRPRPRPADNPRP | 0.212
RRIRARPPRLPRPRPRPETHPRP | 0.56
RRIRYRPPRLPRPRPRPAQMPRP | 0.0755
RRIRFRPPRLPRPRPRPKCFPRP | -0.108
RRIRYRPPRLPRPRPRPWDTPRP | -0.639
RRIRERPPRLPRPRPRPTCWPRP | 0.0288
RRIRVRPPRLPRPRPRPPCKPRP | 0.106
RRIRKRPPRLPRPRPRPVCRPRP | 0.245
RRIRIRPPRLPRPRPRPPIQPRP | -0.468
RRIRSRPPRLPRPRPRPMCAPRP | 0.29
RRIRHRPPRLPRPRPRPPCGPRP | 0.176
RRIRRRPPRLPRPRPRPESKPRP | 0.265
RRIRFRPPRLPRPRPRPWEFPRP | -0.12
RRIRGRPPRLPRPRPRPVQGPRP | 0.301
RRIRIRPPRLPRPRPRPNQMPRP | -0.173
RRIRYRPPRLPRPRPRPLPGPRP | -0.139
RRIRHRPPRLPRPRPRPEKWPRP | -0.0863

Source: the supplement of paper PMC9112550, “Optimization of the antimicrobial peptide Bac7 by deep mutational scanning” (BMC Biology, 2022)
